23 sequences from the Immune Epitope Database (IEDB) can be followed below.

For assay [1], the target named is HLA-A*02:01. Description: IEDB peptide-MHC binding, cellular MHC/competitive/fluorescence; ≥ and ≤ were set here for values at or beyond the usual limits of such assays.
Assay [2] concerns the target HLA-A*02:02. Description: IEDB peptide-MHC binding, purified MHC/competitive/radioactivity; ≥ and ≤ were set here for values at or beyond the usual limits of such assays.
Assay [3] concerns the target HLA-A*02:03. The assay is described as above.
Assay [4] has as its target HLA-A*02:06. Described as above.
For assay [5], the target named is HLA-A*68:02. Described as above.
The target in assay [6] is HLA-A*02:01. The assay is described as above.
[7] abbreviates: source organism: Mammarenavirus choriomeningitidis.
Setting [8] is: source organism: Influenza A virus.
Setting [9] is: source organism: Vaccinia virus WR.

pIC50: −log10 of the molar value.

Consider ALMDCIIFES, for which the negative logarithm of the IC50 (pIC50) (in general, the IC50 on a negative log10 scale, so that one unit is a factor of ten) in assay [1] (setting [7]) is 5.21; in assay [2] (setting [7]), 8.68; in assay [3] (setting [7]), 7.80; in assay [4] (setting [7]), 7.89; in assay [5] (setting [7]), 6.29.

Take ATAGLTHMMI: the pIC50 in assay [1] (setting [8]) is 4.92; in assay [2] (setting [8]), 6.20; in assay [3] (setting [8]), 5.97; in assay [4] (setting [8]), 5.66; in assay [5] (setting [8]), 6.86.

Take AVKFAEESYT: the pIC50 is 5.11 in assay [1] (setting [9]); 5.75 in assay [2] (setting [9]); 5.83 in assay [3] (setting [9]); 5.65 in assay [4] (setting [9]); 5.64 in assay [5] (setting [9]).

In the case of DVNSVQFSIL, the pIC50 in assay [1] (setting [9]) is 5.18; in assay [2] (setting [9]) it was 5.64; in assay [3] (setting [9]) it was 5.78; in assay [4] (setting [9]) it was 5.47; in assay [5] (setting [9]), 5.56.

Consider EATFIDVHI, for which the pIC50 is 4.97 in assay [1] (setting [9]); 5.78 in assay [2] (setting [9]); 6.06 in assay [3] (setting [9]); 5.46 in assay [4] (setting [9]); 9.89 in assay [5] (setting [9]).

Consider ELAYYNSCML, for which the negative logarithm of the IC50 (pIC50) was 4.90 in assay [1] (setting [9]); 5.73 in assay [2] (setting [9]); 6.82 in assay [3] (setting [9]); 5.45 in assay [4] (setting [9]); 6.19 in assay [5] (setting [9]).

Take ELIDVLKTRL: the pIC50 in assay [1] (setting [9]) is 5.27; in assay [2] (setting [9]), 6.58; in assay [3] (setting [9]) it was 6.93; in assay [4] (setting [9]), 5.70; in assay [5] (setting [9]), 5.85.

As for ETMYLTMKAI, the pIC50 in assay [1] (setting [9]) was 5.18; in assay [2] (setting [9]), 5.88; in assay [3] (setting [9]), 7.60; in assay [4] (setting [9]), 5.45; in assay [5] (setting [9]), 8.40.

As to FVNFNSVKNL, the pIC50 was 5.06 in assay [1] (setting [9]); 5.70 in assay [2] (setting [9]); 6.50 in assay [3] (setting [9]); 5.66 in assay [4] (setting [9]); 6.92 in assay [5] (setting [9]).

For IAIFNNRNLA, the negative logarithm of the IC50 (pIC50) was 5.20 in assay [1] (setting [9]); 5.47 in assay [2] (setting [9]); 5.83 in assay [3] (setting [9]); 6.05 in assay [4] (setting [9]); 5.83 in assay [5] (setting [9]).

For the sequence ILKDPRIASI, the pIC50 was 5.30 in assay [1] (setting [9]); 5.50 in assay [2] (setting [9]); 5.99 in assay [3] (setting [9]); 5.40 in assay [4] (setting [9]); 5.35 in assay [5] (setting [9]).

ITRLEVIGLT: the pIC50 is 5.19 in assay [1] (setting [9]); 5.66 in assay [2] (setting [9]); 6.66 in assay [3] (setting [9]); 6.01 in assay [4] (setting [9]); 5.93 in assay [5] (setting [9]).

In the case of IVFGIYKDNL, the pIC50 in assay [1] (setting [9]) was 5.26; in assay [2] (setting [9]) it was 6.73; in assay [3] (setting [9]), 6.10; in assay [4] (setting [9]), 7.32; in assay [5] (setting [9]), 6.20.

For KINEMVDELV, the pIC50 in assay [1] (setting [9]) was 4.58; in assay [2] (setting [9]), 6.23; in assay [3] (setting [9]), 6.31; in assay [4] (setting [9]) it was 5.51; in assay [5] (setting [9]), 5.30.

For the sequence KTPDYPLIDI, the pIC50 in assay [1] (setting [9]) is 5.26; in assay [2] (setting [9]), 5.95; in assay [3] (setting [9]) it was 6.60; in assay [4] (setting [9]) it was 6.14; in assay [5] (setting [9]), 5.90.

As for KTVKNVDII, the pIC50 in assay [1] (setting [9]) was 5.06; in assay [2] (setting [9]) it was 6.22; in assay [3] (setting [9]) it was 5.75; in assay [4] (setting [9]), 6.16; in assay [5] (setting [9]), 5.93.

LITLILSNKL: the pIC50 in assay [1] (setting [9]) is 5.12; in assay [2] (setting [9]), 6.65; in assay [3] (setting [9]) it was 6.53; in assay [4] (setting [9]), 6.20; in assay [5] (setting [9]), 5.83.

On to LNMFVSDQV, for which the negative logarithm of the IC50 (pIC50) in assay [1] (setting [7]) was 5.24; in assay [2] (setting [7]), 7.74; in assay [3] (setting [7]), 6.06; in assay [4] (setting [7]) it was 5.32; in assay [5] (setting [7]), 8.15.

For the sequence YLGIFKNNDV, the pIC50 in assay [6] (setting [9]) is 7.80; in assay [2] (setting [9]) it was 7.82; in assay [3] (setting [9]), 7.77; in assay [4] (setting [9]), 6.55; in assay [5] (setting [9]), 6.16.

As for YLGPRVCWL, the pIC50 was 8.66 in assay [6] (setting [9]); 9.05 in assay [2] (setting [9]); 8.47 in assay [3] (setting [9]); 7.64 in assay [4] (setting [9]); 6.29 in assay [5] (setting [9]).

Consider YLLFNHFSV, for which the pIC50 in assay [6] (setting [9]) was 9.57; in assay [2] (setting [9]), 8.92; in assay [3] (setting [9]) it was 8.80; in assay [4] (setting [9]) it was 9.14; in assay [5] (setting [9]), 7.41.

As for YLMCLSPLM, the negative logarithm of the IC50 (pIC50) is 9.47 in assay [6] (source organism: SARS-CoV1); 9.85 in assay [2] (source organism: SARS-CoV1); 9.52 in assay [3] (source organism: SARS-CoV1); 8.96 in assay [4] (source organism: SARS-CoV1); 5.91 in assay [5] (source organism: SARS-CoV1).

YLMCLSPLMA: the pIC50 is 9.19 in assay [6] (source organism: SARS-CoV1); 9.62 in assay [2] (source organism: SARS-CoV1); 9.89 in assay [3] (source organism: SARS-CoV1); 8.89 in assay [4] (source organism: SARS-CoV1); 6.78 in assay [5] (source organism: SARS-CoV1).
